Laboratory results published in patent US20020099180A1 (published 2002).
One block for each binder: values may come before it.

Columns and labels:
[1] = target: T1, fibroblast activating protein alpha (FAPα), cell surface-bound on FAP+ cells (FAP over-expressing HT1080 … (human, UniProt Q12884 1-760)); experiment: flow cytometry saturation on FAP expressing HT1080 cells; SC50
T1 construct: whole, on cells; Target of the flow cytometry and of the immunohistology; also called cell membrane expressed FAP
T1 sequence (looked up): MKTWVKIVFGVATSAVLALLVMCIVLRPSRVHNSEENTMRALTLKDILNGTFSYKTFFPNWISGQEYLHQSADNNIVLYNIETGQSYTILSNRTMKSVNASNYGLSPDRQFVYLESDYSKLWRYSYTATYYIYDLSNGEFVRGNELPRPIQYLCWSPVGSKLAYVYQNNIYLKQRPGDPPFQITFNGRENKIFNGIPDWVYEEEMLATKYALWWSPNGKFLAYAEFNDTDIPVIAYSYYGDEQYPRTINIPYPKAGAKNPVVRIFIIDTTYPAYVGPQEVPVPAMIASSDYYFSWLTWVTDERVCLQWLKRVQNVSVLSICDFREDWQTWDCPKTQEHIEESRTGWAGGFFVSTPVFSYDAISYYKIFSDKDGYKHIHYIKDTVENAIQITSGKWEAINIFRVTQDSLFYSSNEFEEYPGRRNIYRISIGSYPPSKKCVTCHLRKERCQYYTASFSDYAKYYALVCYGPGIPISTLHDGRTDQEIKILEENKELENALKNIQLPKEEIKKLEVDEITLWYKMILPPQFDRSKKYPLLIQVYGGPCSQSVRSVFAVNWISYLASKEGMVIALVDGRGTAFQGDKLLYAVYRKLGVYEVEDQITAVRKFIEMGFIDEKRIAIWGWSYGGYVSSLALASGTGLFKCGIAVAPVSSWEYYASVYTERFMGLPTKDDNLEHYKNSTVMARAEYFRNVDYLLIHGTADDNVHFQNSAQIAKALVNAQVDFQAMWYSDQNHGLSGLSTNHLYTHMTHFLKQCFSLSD

[2] = target: T2, fibroblast activating protein alpha (FAPα), purified and immobilised (ELISA wells) (human, UniProt Q12884 27-760, limits assumed); experiment: sandwich ELISA, c-myc tag detection; SC50 = concentration of half maximal saturation of binding
T2 construct: also called purified FAP; immobilized FAP
T2 sequence (looked up): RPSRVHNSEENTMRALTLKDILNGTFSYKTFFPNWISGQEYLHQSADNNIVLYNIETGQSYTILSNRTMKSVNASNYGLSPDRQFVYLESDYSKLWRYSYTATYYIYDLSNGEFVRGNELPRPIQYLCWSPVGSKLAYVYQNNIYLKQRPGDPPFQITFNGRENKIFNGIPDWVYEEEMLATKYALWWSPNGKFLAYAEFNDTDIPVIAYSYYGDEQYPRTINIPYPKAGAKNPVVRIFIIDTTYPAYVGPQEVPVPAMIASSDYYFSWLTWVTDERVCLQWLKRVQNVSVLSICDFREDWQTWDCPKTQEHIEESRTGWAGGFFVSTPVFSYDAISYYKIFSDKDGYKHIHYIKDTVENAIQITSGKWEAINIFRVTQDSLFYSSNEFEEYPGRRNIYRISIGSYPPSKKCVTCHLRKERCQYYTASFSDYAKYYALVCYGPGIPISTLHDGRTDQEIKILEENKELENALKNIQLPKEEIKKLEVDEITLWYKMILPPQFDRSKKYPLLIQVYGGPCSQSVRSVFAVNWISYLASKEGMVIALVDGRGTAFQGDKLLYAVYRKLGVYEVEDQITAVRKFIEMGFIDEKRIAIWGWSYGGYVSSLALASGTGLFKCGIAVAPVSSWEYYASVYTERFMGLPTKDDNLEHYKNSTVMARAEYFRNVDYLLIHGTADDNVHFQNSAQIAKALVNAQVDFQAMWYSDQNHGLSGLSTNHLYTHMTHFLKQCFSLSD

[3] = target: T1, fibroblast activating protein alpha …; experiment: binding to FAP+ cells, cell analyser, half maximal saturation
[4] = target: T1, fibroblast activating protein alpha …; experiment: flow cytometry saturation on FAP-overexpressing cells; half maximal saturation

- EC50 [1]: 20 nM
- EC50 [2]: 20 nM
B1: scFv F19 (parental murine scFv of the monoclonal antibody F19) (scFv, V domains shown)
VH: EVQLQQSGPELVKPGASVKMSCKTSRYTFTEYTIHWVRQSHGKSLEWIGGINPNNGIPNYNQKFKGRATLTVGKSSSTAYMELRSLTSEDSAVYFCARRRIAYGYDEGHAMDYWGQGTSVTVSS
VL: DIVMSQSPSSLAVSVGEKVTMSCKSSQSLLYSRNQKNYLAWFQQKPGQSPKLLIFWASTRESGVPDRFTGSGFGTDFNLTISSVQAEDLAVYDCQQYFSYPLTFGAGTKLELK

- EC50 [2]: 20 nM
B2: chimeric scFv III43 (murine VH F19 / human VL III43) (scFv, V domains shown)
VH: B1 VH
VL: DIQMTQSPSSLSASTGDRVTITCRASQDISSYLAWYQQAPGKAPHLLMSGATTLQTGVPSRFSGSGSGTDFTLTISSLQAEDVAVYYCQQYYRTPFTFGQGTKLEIKR

B3: scFv #34 (VH #34, IgG; VL III43; murine HCDR3 F19) (scFv)
scFv: QVQLQQSGAEVKKPGSSVKVSCKASGGTFSTHTINWVRQAPGQGLEWMGGIAPMFGTANYAQKFQGRVTITADKSTSTAYMEMSSLRSDDTAVYYCARRRIAYGYDEGHAMDYWGQGTLVTVSSASTKGPKLEEGEFSEARVDIQMTQSPSSLSASTGDRVTITCRASQDISSYLAWYQQAPGKAPHLLMSGATTLQTGVPSRFSGSGSGTDFTLTISSLQAEDVAVYYCQQYYRTPFTFGQGTKLEIKRTVAAPSVFAA
notes: Humanised monovalent scFv, detected through the c-myc tag with 9E10; also called clone #34; VH34YOL III43; not shown: c-myc and HIS6 tags (pOPE101), or pIII in the screening ELISA
- EC50 [1]: 6 nM
- EC50 [3]: ~6 nM

- EC50 [4]: 2 nM
B4: Mb #34 (minibody of scFv #34) (other)
chain: B3 scFv
notes: also called scFv #34-minibody; not shown: hinge-linker-CH3-cmyc-HIS6 of the minibody

- EC50 [3]: 32 nM
B5: scFv #50 in minibody format (bivalent) (other)
chain: QVQLVESGGGLVQPGGSLRLSCAASGFTFSNYWMSWVRQAPGKGLEWVANIKQDGSEKYYVDSVKGRFTISRDNAKNSLYLQMNSLRAEDTAVYYCARGSLCTDGSCPTIGPGPNWGQGTLVTVSSAPTKAPKLEEGEFSEARVDIQMTQSPSSLSASTGDRVTITCRASQDISSYLAWYQQAPGKAPHLLMSGATTLQTGVPSRFSGSGSGTDFTLTITSLQSEDFATYYCQQYYIYPPTFGQGTRVEIKRTVAAPSVFAA
notes: Minibody: bivalent homodimeric scFv derivative; also called scFv #50 (as bivalent in minibody format); not shown: hinge-linker-CH3-cmyc-HIS6 of the minibody

B6: scFv #18 (VH #18, IgG; VL III43; murine HCDR3 F19) (scFv)
scFv: QVQLVQSGAELKKPGSSMKVSCKASGDTFSTYSINWVRQAPGQGLEWMGVINPSGGSTSYAQKFQGRVTMTRDTSTSTVYMELSSLRSEDTAVYYCARRRIAYGYDEGHAMDYWGQGTLVTVSSASTKGPKLEEGEFSEARVDIQMTQSPSSLSASTGDRVTITCRASQDISSYLAWYQQAPGKAPHLLMSGATTLQTGVPSRFSGSGSGTDFTLTISSLQAEDVAVYYCQQYYRTPFTFGQGTKLEIKRTVAAPSVFAA
notes: Humanised monovalent scFv, detected through the c-myc tag with 9E10; also called clone #18; VH18 YOL III43; not shown: c-myc and HIS6 tags (pOPE101), or pIII in the screening ELISA
- EC50 [1]: 6 nM
- EC50 [3]: ~6 nM

- EC50 [3]: 8 to 12 nM
B7: scFv #13 in minibody format (bivalent) (other)
chain: QVQLVESGGTLVQPGGSLRLSCAASGFTFSSYAMSWIRQAPGKGLEWVSGISASGGYIDYADSVKGRVTISRDNSKNMAYLQMSSLRAEDTALYYCAKGGNYQMLLDHWGQGTLVTVSSASTKGPKLEEGEFSEARVDIQMTQSPSSLSASTGDRVTITCRASQDISSYLAWYQQAPGKAPHLLMSGATTLQTGVPSRFSGSGSGTDFTLTITSLQSEDFATYYCQQYYIYPPTFGQGTRVEIKRTVAAPSVFAA
notes: also called scFv #13 (as bivalent in minibody format); scFv #13 (minibody format); not shown: hinge-linker-CH3-cmyc-HIS6 of the minibody
